From US20100135951A1

Target: TRAIL-R2 (human) (UniProt O14763)
Experiment: cell-based or functional assay

TRAIL-R2 (human), sequence (O14763 other isoform, or with tags, fused parts or gaps limits assumed): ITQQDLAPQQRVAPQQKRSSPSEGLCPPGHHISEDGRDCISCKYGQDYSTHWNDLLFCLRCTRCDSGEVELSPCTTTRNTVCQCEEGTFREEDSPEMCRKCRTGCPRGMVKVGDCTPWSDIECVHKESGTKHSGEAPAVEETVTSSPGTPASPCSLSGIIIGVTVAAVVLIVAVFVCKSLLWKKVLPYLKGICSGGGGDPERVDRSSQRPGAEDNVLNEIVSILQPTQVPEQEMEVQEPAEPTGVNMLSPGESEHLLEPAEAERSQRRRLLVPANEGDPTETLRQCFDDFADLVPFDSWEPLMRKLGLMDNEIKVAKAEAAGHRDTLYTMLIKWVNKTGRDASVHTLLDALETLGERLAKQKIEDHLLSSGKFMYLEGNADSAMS

TRA-8 (antibody)
cell death (ATPLITE cell viability assay): 100%
